Measured values taken from US20120172293A1 (Takeda / Millennium, published 2012).
Starred links: 1 amine or outer side, 2 acyl side, 3 side chain; linkers in the order of their positions; H or OH if unused. Non-standard residues stand in square brackets, D forms with d. No end group written: not given here. *: point of attachment. Ala(piperidin-4-yl) = O=C([C@H](CC1CCN([*:3])CC1)N[*:1])[*:2]; (carboxymethyl)carbamoyl = O=C(O)CNC(=O)*; Imidazole4carbonyl = O=C(c1cnc[nH]1)*; Arg(Me) = CNC(=N)NCCC[C@H](N)C(=O)O; hArg = N=C(N)NCCCC[C@H](N)C(=O)O; 4Pal = N[C@@H](Cc1ccncc1)C(=O)O; Cha = N[C@@H](CC1CCCCC1)C(=O)O; Isonicotinoyl = O=C(c1ccncc1)*; Suc = O=C(CCC(=O)[*:2])[*:1]; Iva = CC[C@](C)(N)C(=O)O; Nle = CCCC[C@H](N)C(=O)O; Aib = CC(C)(N)C(=O)O; Ahx = NCCCCCC(=O)O

B1: Ac-[Glu23, D-Pro24, Iva25, Pya(4)26, Cha27,36, Aib28,31, Lys30]-PYY(23-36) (peptide)
peptide: Ac-E[dP][Iva][4Pal][Cha][Aib]NK[Aib]TRQR[Cha]-NH2
SMILES: CC[C@](C)(NC(=O)[C@H]1CCCN1C(=O)[C@H](CCC(=O)O)NC(C)=O)C(=O)N[C@@H](Cc1ccncc1)C(=O)N[C@@H](CC1CCCCC1)C(=O)NC(C)(C)C(=O)N[C@@H](CC(N)=O)C(=O)N[C@@H](CCCCN)C(=O)NC(C)(C)C(=O)N[C@H](C(=O)N[C@@H](CCCNC(=N)N)C(=O)N[C@@H](CCC(N)=O)C(=O)N[C@@H](CCCNC(=N)N)C(=O)N[C@@H](CC1CCCCC1)C(N)=O)[C@@H](C)O
B2: (Carboxymethyl)carbamoyl-[D-Pro24, Iva25, Pya(4)26, Cha27,36, Aib28,31, Lys30]-PYY(23-36) (peptide)
peptide: {(carboxymethyl)carbamoyl}-S[dP][Iva][4Pal][Cha][Aib]NK[Aib]TRQR[Cha]-NH2
SMILES: CC[C@](C)(NC(=O)[C@H]1CCCN1C(=O)[C@H](CO)NC(=O)NCC(=O)O)C(=O)N[C@@H](Cc1ccncc1)C(=O)N[C@@H](CC1CCCCC1)C(=O)NC(C)(C)C(=O)N[C@@H](CC(N)=O)C(=O)N[C@@H](CCCCN)C(=O)NC(C)(C)C(=O)N[C@H](C(=O)N[C@@H](CCCNC(=N)N)C(=O)N[C@@H](CCC(N)=O)C(=O)N[C@@H](CCCNC(=N)N)C(=O)N[C@@H](CC1CCCCC1)C(N)=O)[C@@H](C)O
B3: [Acp23, D-Pro24, Pya(4)26, Cha27,36, Aib28,31, Lys30]-PYY(23-36) (peptide)
peptide: [Ahx][dP]R[4Pal][Cha][Aib]NK[Aib]TRQR[Cha]-NH2
modifications: not fully specified (N-terminus); printed as Ac-Acp-D-Pro-Arg-Pya(4)-Cha-Aib-Asn-Lys-Aib-Thr-Arg-Gln-Arg-Cha-NH2
B4: Ac-[Arg23, D-Pro24, Iva25, Pya(4)26, Cha27,36, Aib28,31, Lys30]-PYY(23-36) (peptide)
peptide: Ac-R[dP][Iva][4Pal][Cha][Aib]NK[Aib]TRQR[Cha]-NH2
SMILES: CC[C@](C)(NC(=O)[C@H]1CCCN1C(=O)[C@H](CCCNC(=N)N)NC(C)=O)C(=O)N[C@@H](Cc1ccncc1)C(=O)N[C@@H](CC1CCCCC1)C(=O)NC(C)(C)C(=O)N[C@@H](CC(N)=O)C(=O)N[C@@H](CCCCN)C(=O)NC(C)(C)C(=O)N[C@H](C(=O)N[C@@H](CCCNC(=N)N)C(=O)N[C@@H](CCC(N)=O)C(=O)N[C@@H](CCCNC(=N)N)C(=O)N[C@@H](CC1CCCCC1)C(N)=O)[C@@H](C)O
B5: Ac-[D-Pro24, Arg(Me)25,30, Pya(4)26, Cha27,36, Aib28,31]-PYY(23-36) (peptide)
peptide: Ac-S[dP][Arg(Me)][4Pal][Cha][Aib]N[Arg(Me)][Aib]TRQR[Cha]-NH2
SMILES: CNC(=N)NCCC[C@H](NC(=O)[C@H](CC(N)=O)NC(=O)C(C)(C)NC(=O)[C@H](CC1CCCCC1)NC(=O)[C@H](Cc1ccncc1)NC(=O)[C@H](CCCNC(=N)NC)NC(=O)[C@H]1CCCN1C(=O)[C@H](CO)NC(C)=O)C(=O)NC(C)(C)C(=O)N[C@H](C(=O)N[C@@H](CCCNC(=N)N)C(=O)N[C@@H](CCC(N)=O)C(=O)N[C@@H](CCCNC(=N)N)C(=O)N[C@@H](CC1CCCCC1)C(N)=O)[C@@H](C)O
B6: 4-Pyridinecarbonyl-[D-Pro24, Iva25, Pya(4)26, Cha27,36, Aib28,31, Lys30]-PYY(23-36) (peptide)
peptide: Isonicotinoyl-S[dP][Iva][4Pal][Cha][Aib]NK[Aib]TRQR[Cha]-NH2
SMILES: CC[C@](C)(NC(=O)[C@H]1CCCN1C(=O)[C@H](CO)NC(=O)c1ccncc1)C(=O)N[C@@H](Cc1ccncc1)C(=O)N[C@@H](CC1CCCCC1)C(=O)NC(C)(C)C(=O)N[C@@H](CC(N)=O)C(=O)N[C@@H](CCCCN)C(=O)NC(C)(C)C(=O)N[C@H](C(=O)N[C@@H](CCCNC(=N)N)C(=O)N[C@@H](CCC(N)=O)C(=O)N[C@@H](CCCNC(=N)N)C(=O)N[C@@H](CC1CCCCC1)C(N)=O)[C@@H](C)O
B7: 3-Carboxypropionyl-[D-Pro24, Pya(4)26, Cha27,36, Aib28,31, Lys30]-PYY(24-36) (peptide)
peptide: Suc-[dP]R[4Pal][Cha][Aib]NK[Aib]TRQR[Cha]-NH2
SMILES: C[C@@H](O)[C@H](NC(=O)C(C)(C)NC(=O)[C@H](CCCCN)NC(=O)[C@H](CC(N)=O)NC(=O)C(C)(C)NC(=O)[C@H](CC1CCCCC1)NC(=O)[C@H](Cc1ccncc1)NC(=O)[C@H](CCCNC(=N)N)NC(=O)[C@H]1CCCN1C(=O)CCC(=O)O)C(=O)N[C@@H](CCCNC(=N)N)C(=O)N[C@@H](CCC(N)=O)C(=O)N[C@@H](CCCNC(=N)N)C(=O)N[C@@H](CC1CCCCC1)C(N)=O
B8: Ac-[D-Pro24, Iva25, Pya(4)26, Cha27,36, Aib28,31, Har30]-PYY(23-36) (peptide)
peptide: Ac-S[dP][Iva][4Pal][Cha][Aib]N[hArg][Aib]TRQR[Cha]-NH2
SMILES: CC[C@](C)(NC(=O)[C@H]1CCCN1C(=O)[C@H](CO)NC(C)=O)C(=O)N[C@@H](Cc1ccncc1)C(=O)N[C@@H](CC1CCCCC1)C(=O)NC(C)(C)C(=O)N[C@@H](CC(N)=O)C(=O)N[C@@H](CCCCNC(=N)N)C(=O)NC(C)(C)C(=O)N[C@H](C(=O)N[C@@H](CCCNC(=N)N)C(=O)N[C@@H](CCC(N)=O)C(=O)N[C@@H](CCCNC(=N)N)C(=O)N[C@@H](CC1CCCCC1)C(N)=O)[C@@H](C)O
B9: Ac-[D-Pro24, Iva25,28, Pya(4)26, Cha27,36, Lys30, Aib31]-PYY(23-36) (peptide)
peptide: Ac-S[dP][Iva][4Pal][Cha][Iva]NK[Aib]TRQR[Cha]-NH2
SMILES: CC[C@](C)(NC(=O)[C@H](CC1CCCCC1)NC(=O)[C@H](Cc1ccncc1)NC(=O)[C@](C)(CC)NC(=O)[C@H]1CCCN1C(=O)[C@H](CO)NC(C)=O)C(=O)N[C@@H](CC(N)=O)C(=O)N[C@@H](CCCCN)C(=O)NC(C)(C)C(=O)N[C@H](C(=O)N[C@@H](CCCNC(=N)N)C(=O)N[C@@H](CCC(N)=O)C(=O)N[C@@H](CCCNC(=N)N)C(=O)N[C@@H](CC1CCCCC1)C(N)=O)[C@@H](C)O
B10: 4-Imidazolecarbonyl-[D-Pro24, Iva25, Pya(4)26, Cha27,30,36, Aib28,31]-PYY(23-36) (peptide)
peptide: Imidazole4carbonyl-S[dP][Iva][4Pal][Cha][Aib]N[Cha][Aib]TRQR[Cha]-NH2
SMILES: CC[C@](C)(NC(=O)[C@H]1CCCN1C(=O)[C@H](CO)NC(=O)c1cnc[nH]1)C(=O)N[C@@H](Cc1ccncc1)C(=O)N[C@@H](CC1CCCCC1)C(=O)NC(C)(C)C(=O)N[C@@H](CC(N)=O)C(=O)N[C@@H](CC1CCCCC1)C(=O)NC(C)(C)C(=O)N[C@H](C(=O)N[C@@H](CCCNC(=N)N)C(=O)N[C@@H](CCC(N)=O)C(=O)N[C@@H](CCCNC(=N)N)C(=O)N[C@@H](CC1CCCCC1)C(N)=O)[C@@H](C)O
B11: 4-Imidazolecarbonyl-[D-Pro24, Iva25, Pya(4)26, Cha27,36, Aib28,31, Lys30]-PYY(23-36) (peptide)
peptide: Imidazole4carbonyl-S[dP][Iva][4Pal][Cha][Aib]NK[Aib]TRQR[Cha]-NH2
SMILES: CC[C@](C)(NC(=O)[C@H]1CCCN1C(=O)[C@H](CO)NC(=O)c1cnc[nH]1)C(=O)N[C@@H](Cc1ccncc1)C(=O)N[C@@H](CC1CCCCC1)C(=O)NC(C)(C)C(=O)N[C@@H](CC(N)=O)C(=O)N[C@@H](CCCCN)C(=O)NC(C)(C)C(=O)N[C@H](C(=O)N[C@@H](CCCNC(=N)N)C(=O)N[C@@H](CCC(N)=O)C(=O)N[C@@H](CCCNC(=N)N)C(=O)N[C@@H](CC1CCCCC1)C(N)=O)[C@@H](C)O
B12: 4-Imidazolecarbonyl-[D-Pro24, Nle25, Pya(4)26, Cha27,36, Aib28,31, Lys30]-PYY(23-36) (peptide)
peptide: Imidazole4carbonyl-S[dP][Nle][4Pal][Cha][Aib]NK[Aib]TRQR[Cha]-NH2
SMILES: CCCC[C@H](NC(=O)[C@H]1CCCN1C(=O)[C@H](CO)NC(=O)c1cnc[nH]1)C(=O)N[C@@H](Cc1ccncc1)C(=O)N[C@@H](CC1CCCCC1)C(=O)NC(C)(C)C(=O)N[C@@H](CC(N)=O)C(=O)N[C@@H](CCCCN)C(=O)NC(C)(C)C(=O)N[C@H](C(=O)N[C@@H](CCCNC(=N)N)C(=O)N[C@@H](CCC(N)=O)C(=O)N[C@@H](CCCNC(=N)N)C(=O)N[C@@H](CC1CCCCC1)C(N)=O)[C@@H](C)O

Target: human Y2 receptor (human) (UniProt P49146)
Sequence (P49146 whole entry): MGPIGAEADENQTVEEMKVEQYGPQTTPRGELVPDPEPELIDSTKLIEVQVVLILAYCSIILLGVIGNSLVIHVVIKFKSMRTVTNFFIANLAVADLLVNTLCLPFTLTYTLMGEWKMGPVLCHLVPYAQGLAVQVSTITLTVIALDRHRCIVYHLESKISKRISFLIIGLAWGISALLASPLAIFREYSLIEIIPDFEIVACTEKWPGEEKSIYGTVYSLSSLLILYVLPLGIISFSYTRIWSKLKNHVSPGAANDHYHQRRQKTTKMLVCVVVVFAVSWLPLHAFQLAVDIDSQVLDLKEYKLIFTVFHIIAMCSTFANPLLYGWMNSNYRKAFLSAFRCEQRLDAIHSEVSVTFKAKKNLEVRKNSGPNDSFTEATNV
Experiment: cell-based or functional assay

| Binder | GBA EC50 Ratio ([35S]GTPγS binding) (EC50 compound/EC50 PYY(3-36)) |
| --- | --- |
| B1 | 2.8 |
| B2 | 1.6 |
| Ac-S[dP][Iva][4Pal][Cha][Aib]N[Arg(Me)][Aib]TRQR[Cha]-NH2 [Ac-[D-Pro24, Iva25, Pya(4)26, Cha27,36, Aib28,31, Arg(Me)30]-PYY(23-36)] | 1.7 |
| B3 | 1.1 |
| B4 | 0.78 |
| B5 | 1.5 |
| Ac-S[dP][Ala(piperidin-4-yl)][4Pal][Cha][Aib]NK[Aib]TRQR[Cha]-NH2 (also: Ala(4Pip)25 D or L, not assigned, former peak isomer) [Ac-[D-Pro24, Ala(4Pip)25, Pya(4)26, Cha27,36, Aib28,31, Lys30]-PYY(23-36) former peak] | 14 |
| B6 | 1.1 |
| B7 | 1.2 |
| B8 | 1 |
| B9 | 1 |
| B10 | 1.9 |
| B11 | 0.91 |
| B12 | 1.2 |
| Ac-S[dP][Ala(piperidin-4-yl)][4Pal][Cha][Aib]NK[Aib]TRQR[Cha]-NH2 (also: Ala(4Pip)25 D or L, not assigned, later peak isomer) [Ac-[D-Pro24, Ala(4Pip)25, Pya(4)26, Cha27,36, Aib28,31, Lys30]-PYY(23-36) later peak] | 5.8 |

Target: human Y2 receptor (human) (UniProt P49146)
Experiment: RBA: displacement of [125I]-PYY from hY2R/CHO membranes

| Binder | IC50 Ratio (IC50 compound/IC50 PYY(3-36)) |
| --- | --- |
| B1 | 6.1 |
| B2 | 3 |
| Ac-S[dP][Iva][4Pal][Cha][Aib]N[Arg(Me)][Aib]TRQR[Cha]-NH2 [Ac-[D-Pro24, Iva25, Pya(4)26, Cha27,36, Aib28,31, Arg(Me)30]-PYY(23-36)] | 2.4 |
| B3 | 0.32 |
| B4 | 0.88 |
| B5 | 1.5 |
| Ac-S[dP][Ala(piperidin-4-yl)][4Pal][Cha][Aib]NK[Aib]TRQR[Cha]-NH2 (also: Ala(4Pip)25 D or L, not assigned, former peak isomer) [Ac-[D-Pro24, Ala(4Pip)25, Pya(4)26, Cha27,36, Aib28,31, Lys30]-PYY(23-36) former peak] | 18 |
| B6 | 1 |
| B7 | 1.2 |
| B8 | 0.65 |
| B9 | 1.1 |
| B10 | 2.3 |
| B11 | 0.77 |
| B12 | 1.7 |
| Ac-S[dP][Ala(piperidin-4-yl)][4Pal][Cha][Aib]NK[Aib]TRQR[Cha]-NH2 (also: Ala(4Pip)25 D or L, not assigned, later peak isomer) [Ac-[D-Pro24, Ala(4Pip)25, Pya(4)26, Cha27,36, Aib28,31, Lys30]-PYY(23-36) later peak] | 4.3 |
